Values joined by “and” are separate entries in the source; they are usually repeats but may differ in a detail not shown here. Equal values may be shown once. Values belong to the substance of their own block, whether it stands above or below them.
Key:
[1] = target: Sc Ire1-KR(K992D,Y1059R) (S. cerevisiae); test: cross-linking; 12.5 μM Ire1-KR, 2 mM ADP, 1 mM BS3 (bissulfosuccinimidyl suberate), 2 h on ice; 50 mM HEPES, 200 mM NaCl, 2 mM Mg(OAc)2, 2 mM TCEP, 10% glycerol; SDS-PAGE, coomassie blue or SYPRO Ruby
[2] = target: Sc Ire1-KR(K992D,Y1059R) (S. cerevisiae); test: AUC; sedimentation equilibrium, 20°C; 2.5, 5 and 10 μM protein at 7,000, 10,000 and 14,000 rpm; 50 mM Tris/HCl pH 7.5, 200 mM NaCl, 2 mM Mg(OAc)2, 2 mM TCEP; global fit to a self-association equilibrium model; monomer-dimer equilibrium constant
[3] = target: S. cerevisiae Ire1 kinase/RNase domains (WT Sc Ire1-KR) (S. cerevisiae); test: as above
[4] = target: Sc Ire1-KR(K992R,Y1059D) (S. cerevisiae); test: cross-linking; 12.5 μM Ire1-KR, 2 mM ADP, 1 mM BS3 (bissulfosuccinimidyl suberate), 2 h on ice; 50 mM HEPES, 200 mM NaCl, 2 mM Mg(OAc)2, 2 mM TCEP, 10% glycerol; SDS-PAGE, coomassie blue or SYPRO Ruby

stoichiometry N [1]: 2 and 4
Kd [2]: 0.98 µM
Substance: Sc Ire1-KR(K992D,Y1059R) (domain or fragment)

Kd [3]: 57 µM
Substance: S. cerevisiae Ire1 kinase/RNase domains (WT Sc Ire1-KR) (domain or fragment)

stoichiometry N [4]: 2
Substance: Sc Ire1-KR(K992R,Y1059D) (domain or fragment)

— PMC8104961
